Laboratory results reported in US20230380451A1, “MEANS AND METHODS TO DETOXIFY MYCOTOXINS” (priority 2020, published 2023).

Experiments:
[1] = Storage stability in storage buffer at different temperatures, residual DON transformation activity; assay type: biochemical; settings: for Relative DON transformation activity: storage buffer
Procedure: (§1) To determine the transformation of DON to epi-THS by Akr I-III, described herein, the following assay was performed. An assay buffer was prepared containing 40 ppm DON, 1 mM NADPH in Teorell Stenhagen (TS) buffer, pH 6.0 (Östling and Virtama, Acta Physiologica Scandinavica, 1946, 11:4, 289-293). Tubes containing the assay buffer were transferred in a heating block at 30° C. The reaction was started by addition of Akr I-III to a final concentration of 200 nM in a final reaction volume of 200 μL. Samples were taken before reaction start, and 2, 5, 10, 15 and 20 min after reaction start. DON transformation reactions in these samples were stopped by mixing with absolute methanol at a 1:2 ratio, followed by a 1:100 dilution with 40% methanol. The concentrations of DON and epi-THS in the samples were determined with liquid chromatography-mass spectrometry (LC-MS) on a Sciex 5500 triple quadrupole mass spectrometer coupled to Agilent 1290 series UHPLC system, using the following MS parameters: Acquisition duration: 4 min; Scan Type: MRM (MRM); Polarity: Negative; Ion Source: Turbo Spray.
The storage stability of Akr I-III was tested by incubation of 5 μM enzyme solutions in storage buffer (50 mM Tris pH 9.0, 0.5M NaCl, 50% Glycerol), for 60 min in a thermocycler (Mastercycler, Eppendorf) set to gradient mode from 30° C. to 50° C. Throughout the incubation, samples were removed and placed on ice until DON transformation assays were performed as described in Example 3 to determine enzyme activities. The starting activity at time 0 min was set to 100% and the relative residual activities were determined throughout the incubation. Akr I retained more than 33% activity during 60 min in pH 6 at temperatures from 29.9° C. to 46.0° C. Akr III retained 15% to 90% activity during 20 min in pH 6 at temperatures from 29.9° C. to 40.7° C.

[2] = Storage stability at different pH values, residual DON transformation activity; assay type: biochemical; settings: storage at 30° C.
Procedure: as §1
The storage stability of Akr I-III at different pH values was tested by incubating 1 μM enzyme in TS buffer solutions with a pH of 3.0-10.0 for 4 h at 30° C. in standard 1.5 ml Eppendorf tubes. Every hour, a DON transformation assay was conducted as described in Example 3. The starting activity at time 0 min was set to 100% and the relative residual activities were determined throughout the incubation. For the DON transformation assays, 80 μl of the storage solution were added to an assay reaction with a final volume of 400 μl, which corresponds to a 1:5 dilution of the storage solution. Akr I retained more than 93% activity during 4 hours at 30° C. from pH 4.0-10.0. Akr II retained 30% to 93% activity during 4 hours at 30° C. from pH […] retained 27% to 85% activity during 4 hours at 30° C. from pH 4.0-9.0. Akr I-III retained more than 40% of their activity for 4 hours at 30° C. from pH 4.0 to pH 8.0.

B1: Akr III: artificial amino acid sequence, variant of a wild type aldo-keto reductase (protein)
chain: MRTTEIAQGLKVSNLCIGAGPLGGMPTAFGYDVSEERGIATVQAVFDSPINFMDTSSEYGGSEARIGKVIREGRMPKGFVISSKADAEGEGVGRRGDFSAKQVRASFELSLERLGLTHLDVYFLHDPEKFPFEQVMARGGAMEELLRLKDEGLVGLVGVAGGDVLEMARYVDTGSLDILLNYGRYTILDRSADSLITKVSDAGMAFLNAGPYASGLLAAPRGGSAWYQYAPPDATALQAVDQLHELCESFDVSLRSVALQFSMRDPRITSTVVGLSRPERVRALLDDEAAEIPAELWEQLPAPLNGDIVLPR
modifications: ArkIII
[1]; during 60 min in pH 6 at temperatures from 29.9° C. to 46.0° C.
  retained activity: more than 50%
[1]; 29.9° C., 0 min (starting activity set to 100%)
  Relative DON transformation activity: 100.00%
[1]; 29.9° C., 5 min
  Relative DON transformation activity: 89.1%
[1]; 29.9° C., 10 min
  Relative DON transformation activity: 91.6%
[1]; 29.9° C., 20 min
  Relative DON transformation activity: 90.3%
[1]; 29.9° C., 35 min
  Relative DON transformation activity: 93.1%
[1]; 29.9° C., 50 min
  Relative DON transformation activity: 74.0%
[1]; 29.9° C., 60 min
  Relative DON transformation activity: 72.2%
[1]; 35.3° C., 0 min (starting activity set to 100%)
  Relative DON transformation activity: 100.00%
[1]; 35.3° C., 5 min
  Relative DON transformation activity: 96.00%
[1]; 35.3° C., 10 min
  Relative DON transformation activity: 65.2%
[1]; 35.3° C., 20 min
  Relative DON transformation activity: 98.6%
[1]; 35.3° C., 35 min
  Relative DON transformation activity: 75.2%
[1]; 35.3° C., 50 min
  Relative DON transformation activity: 80.2%
[1]; 35.3° C., 60 min
  Relative DON transformation activity: 104.3%
[1]; 37.9° C., 0 min (starting activity set to 100%)
  Relative DON transformation activity: 100.00%
[1]; 37.9° C., 5 min
  Relative DON transformation activity: 94.01%
[1]; 37.9° C., 10 min
  Relative DON transformation activity: 74.5%
[1]; 37.9° C., 20 min
  Relative DON transformation activity: 43.9%
[1]; 37.9° C., 35 min
  Relative DON transformation activity: 75.2%
[1]; 37.9° C., 50 min
  Relative DON transformation activity: 80.9%
[1]; 37.9° C., 60 min
  Relative DON transformation activity: 78.6%
[1]; 40.7° C., 0 min (starting activity set to 100%)
  Relative DON transformation activity: 100.00%
[1]; 40.7° C., 5 min
  Relative DON transformation activity: 104.1%
[1]; 40.7° C., 10 min
  Relative DON transformation activity: 76.1%
[1]; 40.7° C., 20 min
  Relative DON transformation activity: 81.6%
[1]; 40.7° C., 35 min
  Relative DON transformation activity: 104.5%
[1]; 40.7° C., 50 min
  Relative DON transformation activity: 75.8%
[1]; 40.7° C., 60 min
  Relative DON transformation activity: 105.1%
[1]; 43.4° C., 0 min (starting activity set to 100%)
  Relative DON transformation activity: 100.00%
[1]; 43.4° C., 5 min
  Relative DON transformation activity: 83.4%
[1]; 43.4° C., 10 min
  Relative DON transformation activity: 68.1%
[1]; 43.4° C., 20 min
  Relative DON transformation activity: 66.7%
[1]; 43.4° C., 35 min
  Relative DON transformation activity: 89.3%
[1]; 43.4° C., 50 min
  Relative DON transformation activity: 81.3%
[1]; 43.4° C., 60 min
  Relative DON transformation activity: 91.8%
[1]; 46.0° C., 0 min (starting activity set to 100%)
  Relative DON transformation activity: 100.00%
[1]; 46.0° C., 5 min
  Relative DON transformation activity: 97.7%
[1]; 46.0° C., 10 min
  Relative DON transformation activity: 62.6%
[1]; 46.0° C., 20 min
  Relative DON transformation activity: 62.5%
[1]; 46.0° C., 35 min
  Relative DON transformation activity: 58.4%
[1]; 46.0° C., 50 min
  Relative DON transformation activity: 23.3%
[1]; 46.0° C., 60 min
  Relative DON transformation activity: 50.4%
[1]; 50.8° C., 0 min (starting activity set to 100%)
  Relative DON transformation activity: 100.00%
[1]; 50.8° C., 5 min
  Relative DON transformation activity: 77.4%
[1]; 50.8° C., 10 min
  Relative DON transformation activity: 72.7%
[1]; 50.8° C., 20 min
  Relative DON transformation activity: 19.5%
[1]; 50.8° C., 35 min
  Relative DON transformation activity: 16.6%
[1]; 50.8° C., 50 min
  Relative DON transformation activity: 10.9%
[1]; 50.8° C., 60 min
  Relative DON transformation activity: 16.0%
[2]; pH 3.0, 0 h (starting activity set to 100%)
  Relative DON-transformation activity: 100.0%
[2]; pH 3.0, 1 h
  Relative DON-transformation activity: 13.5%
[2]; pH 3.0, 2 h
  Relative DON-transformation activity: 19.3%
[2]; pH 3.0, 3 h
  Relative DON-transformation activity: 0.0%
[2]; pH 3.0, 4 h
  Relative DON-transformation activity: 0.0%
[2]; pH 4.0, 0 h (starting activity set to 100%)
  Relative DON-transformation activity: 100.0%
[2]; pH 4.0, 1 h
  Relative DON-transformation activity: 95.1%
[2]; pH 4.0, 2 h
  Relative DON-transformation activity: 84.4%
[2]; pH 4.0, 3 h
  Relative DON-transformation activity: 74.8%
[2]; pH 4.0, 4 h
  Relative DON-transformation activity: 57.7%
[2]; pH 5.0, 0 h (starting activity set to 100%)
  Relative DON-transformation activity: 100.0%
[2]; pH 5.0, 1 h
  Relative DON-transformation activity: 97.7%
[2]; pH 5.0, 2 h
  Relative DON-transformation activity: 96.3%
[2]; pH 5.0, 3 h
  Relative DON-transformation activity: 90.7%
[2]; pH 5.0, 4 h
  Relative DON-transformation activity: 85.2%
[2]; pH 6.0, 0 h (starting activity set to 100%)
  Relative DON-transformation activity: 100.0%
[2]; pH 6.0, 1 h
  Relative DON-transformation activity: 97.8%
[2]; pH 6.0, 2 h
  Relative DON-transformation activity: 94.9%
[2]; pH 6.0, 3 h
  Relative DON-transformation activity: 93.1%
[2]; pH 6.0, 4 h
  Relative DON-transformation activity: 78.9%
[2]; pH 7.0.0, 0 h (starting activity set to 100%)
  Relative DON-transformation activity: 100.0%
[2]; pH 7.0.0, 1 h
  Relative DON-transformation activity: 93.0%
[2]; pH 7.0.0, 2 h
  Relative DON-transformation activity: 91.3%
[2]; pH 7.0.0, 3 h
  Relative DON-transformation activity: 85.1%
[2]; pH 7.0.0, 4 h
  Relative DON-transformation activity: 74.0%
[2]; pH 8.0, 0 h (starting activity set to 100%)
  Relative DON-transformation activity: 100.0%
[2]; pH 8.0, 1 h
  Relative DON-transformation activity: 94.2%
[2]; pH 8.0, 2 h
  Relative DON-transformation activity: 77.9%
[2]; pH 8.0, 3 h
  Relative DON-transformation activity: 69.0%
[2]; pH 8.0, 4 h
  Relative DON-transformation activity: 57.6%
[2]; pH 9.0.0, 0 h (starting activity set to 100%)
  Relative DON-transformation activity: 100.0%
[2]; pH 9.0.0, 1 h
  Relative DON-transformation activity: 76.3%
[2]; pH 9.0.0, 2 h
  Relative DON-transformation activity: 61.3%
[2]; pH 9.0.0, 3 h
  Relative DON-transformation activity: 54.1%
[2]; pH 9.0.0, 4 h
  Relative DON-transformation activity: 27.4%
[2]; pH 10.0, 0 h (starting activity set to 100%)
  Relative DON-transformation activity: 100.0%
[2]; pH 10.0, 1 h
  Relative DON-transformation activity: 47.0%
[2]; pH 10.0, 2 h
  Relative DON-transformation activity: 27.1%
[2]; pH 10.0, 3 h
  Relative DON-transformation activity: 17.0%
[2]; pH 10.0, 4 h
  Relative DON-transformation activity: 15.4%
